Reference: US6087121A, “Chemiluminescent detection of heme proteins in biological samples” (Mayo Foundation for Medical Education and Research, priority 1999, dated 2000)
Values joined by “and” are separate entries in the source; they are usually repeats but may differ in a detail not shown here. Equal entries are not always repeated.

How the values were obtained:
RBC = experiment: Effectiveness of lysing agents in RBC assay; type: cell-based, human; settings: saponin 0.2 mg/mL, 30 second time period; mellitin 0.85 mg/mL; CTAC 0.1%
Experimental: (§1) Fresh urine specimens were obtained in routine commercial collection vessels. The specimens were, either, analyzed immediately or stored at 4° C. until analysis. The urine samples were prepared for analysis by adding CTAC to produce a 0.1% solution, unless otherwise noted, in order to lyse the erythrocytes, thereby releasing hemoglobin. The assays were performed in a 75×12 mm polystyrene tube. The assay solutions were prepared by adding to each tube 294 μL of high ionic strength buffer, 5.0 μL of the prepared urine samples or standards, and […] of substrate (0.4 mM solution of 7-DNH), unless otherwise noted. […] The standard curve was obtained by plotting chemiluminescence emission in Relative Light Units (RLU) versus Hb concentration (μg/mL) or number of RBCs (#RBC/high power field (hpf)). Cell counts were determined with the Yellow Iris® instrument and confirmed by a manual hemocytometer count.

leukocytes = experiment: Stability of leukocytes in urine with ofloxacin; type: cell-based; settings: 100 μg/ml ofloxacin, 4° C.
Experimental: (§2) Intra- and inter-assay imprecision was performed for MPO standards, WBC standards and 3 urine samples. Intra- and inter-assay imprecision tests were performed as described for the Hb assay in Example 7. The effect of time on the stability of enzyme activity in the leukocytes was examined. The effect of adding a quinoline antimicrobial agent, ofloxacin, was also studied with respect to its stabilization of the leukocytes.
Stability of leukocytes in the urine over time was improved by storing the urine samples at 4° C. The addition of 100 μg/ml of ofloxacin kept the leukocytes intact up to 20 hours later when the urines were maintained at 4° C. (FIG. 14).

MPO [1] = target: T1, MPO (Homo sapiens, UniProt P05164); experiment: Effects of potential interfering substances in WBC (MPO, PS-1) assay; type: biochemical; settings: Hb <10 μg/mL
T1 sequence (P05164 49-745): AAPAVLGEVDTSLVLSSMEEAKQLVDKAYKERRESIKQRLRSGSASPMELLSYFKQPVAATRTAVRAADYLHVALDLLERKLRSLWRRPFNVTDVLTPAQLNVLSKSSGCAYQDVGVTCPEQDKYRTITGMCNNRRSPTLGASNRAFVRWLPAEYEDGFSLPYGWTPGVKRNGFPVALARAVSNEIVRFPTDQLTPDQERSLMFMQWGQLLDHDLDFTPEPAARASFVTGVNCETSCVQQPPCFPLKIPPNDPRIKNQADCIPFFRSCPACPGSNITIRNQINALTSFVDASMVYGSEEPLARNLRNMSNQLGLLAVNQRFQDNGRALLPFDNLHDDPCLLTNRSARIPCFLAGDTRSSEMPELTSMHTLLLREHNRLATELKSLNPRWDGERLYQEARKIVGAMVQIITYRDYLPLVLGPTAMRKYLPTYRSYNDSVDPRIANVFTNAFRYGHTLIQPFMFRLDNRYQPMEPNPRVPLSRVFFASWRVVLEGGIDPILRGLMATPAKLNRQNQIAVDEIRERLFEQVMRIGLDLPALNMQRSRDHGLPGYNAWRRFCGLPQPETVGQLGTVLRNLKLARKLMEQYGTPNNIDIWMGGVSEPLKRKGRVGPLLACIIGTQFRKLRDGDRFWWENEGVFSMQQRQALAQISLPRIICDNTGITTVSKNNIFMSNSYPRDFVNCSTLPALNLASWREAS

Hb [2] = experiment: Performance characteristics of Hb assay (precision, linearity, recovery, stability); parameters: species or system human; settings: with detergent and substrate
Experimental: Ultrafiltered urine was prepared from a pool of fresh urine specimens by ultrafiltration through Centriprep-10 at 3,000×g in a Beckman J2-HC centrifuge (Beckman Instruments, Calif.). This treatment separates all biomolecules with molecular weight greater than 10,000 daltons so that the ultrafiltered urine is devoid of Hemoglobin (Hb) and Myoglobin (Mb). Stock standards were prepared with the ultrafiltrate containing known quantities of, either purified Hb or washed, packed RBCS. A cell count of the stock RBC standard was determined by the Yellow IRIS® Automated Imaging System (Independent Research Imaging Systems, Chatsworth, Calif.). Cells in urine are imaged under laminar flow conditions. Up to 80 images of cells are captured using a high speed charged-coupled device camera. Cell images are then identified and quantified. […] All chemiluminescence measurements were determined using a Berthold AutoLumat, LB 953 (EG&G Berthold, Aliquippa, Pa.).
Fresh urine specimens were obtained in routine commercial collection vessels. The specimens were, either, analyzed immediately or stored at 4° C. until analysis. […] The emission of light was measured over five seconds following automatic injection of 300 μL of 5% hydrogen peroxide (pH 3.25). […] Cell counts were determined with the Yellow Iris® instrument and confirmed by a manual hemocytometer count. […]

MPO [3] = target: T1, MPO; experiment: Effects of potential interfering substances in WBC (MPO, PS-1) assay; type: biochemical; settings: level giving signal equal to 5 WBC/high power field; highest tested: hemoglobin 250, myoglobin 200 μg/mL
Experimental: (§3) Urine samples were diluted 1:4 into distilled water to minimize inhibitory effects observed with hyperosmolal urines. Two μL of diluted urine were added to 12×75 mm polystyrene test tube containing 50 μL of the PS-1 solution. The tubes were incubated at 37° C. for 5 minutes. MPO activity was determined by chemiluminescence emission using a Turner TD-20e luminometer maintained at 37° C. Leukocyte counting was performed manually by using a hemacytometer chamber (Kova Glasstic slide, Hycor, Irvine, Calif.) on each urine sample to determine the number of cells/mL.
Several possible interfering substances were added to urine and tested for inhibitory effects. Several common medications were also tested for potential inhibitory effects. […] Hb at concentrations of >10 μg/mL and Mb at concentrations >2 μg/mL were detected by the PS-1 substrate as the chemiluminescence emission was above the normal urine background. Samples grossly populated with bacteria caused slight inhibition of the MPO activity. Urine samples may contain many epithelial cells, casts, crystals, and numerous artifacts but none of these appear to interfere with the chemiluminescence emission from MPO.

Mb = experiment: S/N ratios of different chemiluminescent substrates with Mb; type: biochemical, human; settings: signal integrated over first five seconds
Experimental: (§4) Centricon ultrafiltration filters were obtained from Amicon (Daven, Mass.). Polystyrene tubes (5.0 mL volume, 75×12 mm) used for the assay were manufactured by Sarstedt (Arlington Heights, Ill.). The chemiluminescent substrate, 7-dimethylamino-naphthalene-1,2-dicarbonic acid-hydrazide (7-DNH) was purchased from Boehringer Mannheim (Indianapolis, Ind.). PS-1 acridan substrate (solution A and solution B) was obtained from Lumigen Inc. (Southfield, Mich.). […] Tween-20 and Sodium Chloride were purchased from Fisher Scientific (Fair Lawn, N.J.). General laboratory chemicals such as, boric acid, sodium acetate, Trizma base, HEPES, hydrogen peroxide (H2 O2) solution (30.0%), human hemoglobin, catalase, 6-amino-2,3-dihydro-1,4-phthallazinedione (4-aminophthalhydrazide), N-(4-Aminobutyl)-N-ethyl-isoluminol, Triton X-100, (3-[3-cholamidopropyl)dimethylammonio]-1-propanesulfonate) (CHAPS), hydrogen disulfite, methimazole, ofloxacin, ascorbic acid, ammonium chloride, EDTA, Hb, bilirubin, and lactoperoxidase (LPO) were purchased from Sigma Chemical Company (St. Louis, Mo.). Human heart myoglobin and myeloperoxidase were obtained from Calbiochem (La Jolla, Calif.) Thyroid peroxidase (TPO) was purchased from O.E.M. Concepts, Inc. (Toms River, N.J.). Eosinophil peroxidase was provided by Dr. Greipp (Mayo Clinic). Fresh EDTA anticoagulated blood was collected from donors showing no signs of sickness and washed with physiological saline to isolate RBC.
as §1
The substrate (7-DNH) and the ultrafiltered urine were prepared as described above. The kinetics of chemiluminescence was determined by monitoring the chemiluminescence signal over a 20 second time period following addition of the substrate (7-DNH) to ultrafiltered urine. Measurements were performed either in the presence or absence of Hb. […]

Hb [4] = experiment: Chemiluminescence emission kinetics of 7-DNH with Hb; type: biochemical, human; settings: Hb in ultrafiltered urine, after H2O2
Experimental: (§5) The substrate (7-DNH) and the ultrafiltered urine were prepared as described above. The kinetics of chemiluminescence was determined by monitoring the chemiluminescence signal over a 20 second time period following addition of the substrate (7-DNH) to ultrafiltered urine. Measurements were performed either in the presence or absence of Hb. Experiments performed in the absence of Hb provide background measurements in relative light units (RLU).

Hb [5] = experiment: S/N ratios of different chemiluminescent substrates with Hb; type: biochemical, human
Experimental: as §4, §1, §5

Hb [6] = experiment: Interference studies in Hb assay (7-DNH chemiluminescence); type: biochemical, human
Experimental: Numerous potential interfering substances, which either enhance or quench the signal generated by cyclic hydrazides, were evaluated. The effects of these potentially interfering substances on light emission was investigated at varying concentrations of the interfering composition. Assays were performed using serial dilutions of the potential interfering compositions in ultrafiltered urine at a fixed concentration of Hb. Comparisons of chemiluminescence emission were made between a reference solution (Hb in ultrafiltered urine) without added interfering compositions and solutions with added interferant.
Generally, the value of 3 RBC per high power field is the normal cutoff point.
Bilirubin and uric acid were examined as a possible negative interfering compositions because of their chemical structure which may quench energy emitted.

MPO [7] = target: T1, MPO; experiment: Performance characteristics of WBC assay, MPO standard; settings: listed as MPO
Experimental: as §3, §2

MPO [8] = experiment: Effect of temperature/time on chemiluminescence emission from MPO with PS-1; type: biochemical
Experimental: as §3
The kinetics of chemiluminescence emission from MPO at 37° C. was followed over time using several urine samples diluted 4-fold in water (FIG. 11). […] Assays in Examples 10-16 were performed at 37° C., and chemiluminescence emission determined at 5 minutes.

Mellitin: lysing agent was tested, and the “effectiveness as lysing agent” value (RBC) was “nearly as effective as 0.1% CTAC”.

In the case of `CC1COc2c(N3CCN(C)CC3)c(F)cc3c(=O)c(C(=O)O)cn1c23` (stereo not drawn) [ofloxacin], the “leukocytes kept intact in urine” value (leukocytes) is reported as “up to 20 hours”.

For “Hemoglobin: human hemoglobin purchased from Sigma”, the “interference with PS-1 assay” value (MPO [1]) was “did not interfere”, the “stability of Hb in the samples during the reaction” value (Hb [2]) was “up to 25 minutes” and the Interference (MPO [3]) was over 10 µg/mL.

`CN(C)c1ccc2ccc3c(=O)[nH][nH]c(=O)c3c2c1` [7-DNH, 7-dimethylamino-naphthalene-1,2-dicarbonic acid-hydrazide] was tested, and the “S/N for Mb” value (Mb) was 316, the “time of peak emission” value (Hb [4]) was 2 s and the “sensitivity compared to other substrates tested” value (Hb [5]; by signal to noise ratio) was “most sensitive”. The “S/N for Hb” value (Hb [5]; signal integrated over first five seconds) was 589.

B1: Myeloperoxidase: myeloperoxidase obtained from Calbiochem (protein, UniProt P05164 165-745, looked up)
Myeloperoxidase: VTCPEQDKYRTITGMCNNRRSPTLGASNRAFVRWLPAEYEDGFSLPYGWTPGVKRNGFPVALARAVSNEIVRFPTDQLTPDQERSLMFMQWGQLLDHDLDFTPEPAARASFVTGVNCETSCVQQPPCFPLKIPPNDPRIKNQADCIPFFRSCPACPGSNITIRNQINALTSFVDASMVYGSEEPLARNLRNMSNQLGLLAVNQRFQDNGRALLPFDNLHDDPCLLTNRSARIPCFLAGDTRSSEMPELTSMHTLLLREHNRLATELKSLNPRWDGERLYQEARKIVGAMVQIITYRDYLPLVLGPTAMRKYLPTYRSYNDSVDPRIANVFTNAFRYGHTLIQPFMFRLDNRYQPMEPNPRVPLSRVFFASWRVVLEGGIDPILRGLMATPAKLNRQNQIAVDEIRERLFEQVMRIGLDLPALNMQRSRDHGLPGYNAWRRFCGLPQPETVGQLGTVLRNLKLARKLMEQYGTPNNIDIWMGGVSEPLKRKGRVGPLLACIIGTQFRKLRDGDRFWWENEGVFSMQQRQALAQISLPRIICDNTGITTVSKNNIFMSNSYPRDFVNCSTLPALNLASWREAS
With B1 the “Level of Interference (in words)” value (Hb [6]; highest conc: ascorbic acid 10, bilirubin 10, Cu++/Mn++ 40, sodium azide 500 μg/mL, uric acid 1 mg/mL) was “only interfere at very high concentrations”, the “Level of Interference” value (Hb [6]; level producing a signal equivalent to 3 RBC per high power field, fixed Hb concentration) was over 6.2 µg/mL and the “CV%, MPO Standard” value (MPO [7]; Table 10, intra-assay precision, 0.01% Triton incorporated) was 2.05% and 3.56% and 4.33% and 4.63%. The “CV%, MPO Standard” value (MPO [7]; Table 11, 0.01% Triton incorporated) was 6.36% and 8.39% and 8.26% and 5.50%, the “change in RLU (constant chemiluminescence emission)” value (MPO [8]; 37° C., between 3 and 20 minutes) was “less than 5%” and the “time of maximum light emission” value (MPO [8]; room temperature) was 15 min.
